Source: PMC6658616, “Novel Peptide Conjugates of Modified Oligonucleotides for Inhibition of Bacterial RNase P” (Frontiers in Pharmacology, 2019)

Columns and labels:
[1] = tested on: E. coli; assay: Conjugate penetration into bacterial cells, flow cytometry; type: cell-based, Escherichia coli; details: 1 µM conjugate in LB medium, 1 h at 37°C, 3'-fluorescein label, mean ± SD from four independent experiments
[2] = tested on: A. baumannii; assay: as above; type: cell-based, Acinetobacter baumannii; details: 1 µM conjugate in LB medium, 1 h at 37°C, 3'-fluorescein label, mean ± SD from four independent experiments

| Substance | Level of penetration, %, E.coli [1] | Level of penetration, %, A. baumannii [2] | Level of penetration, %, A. baumannii ([2]; listed as 5’-Pept2 -pgd-inh3- Flu) [%] |
| --- | --- | --- | --- |
| 5’-Pept3-d(CAAGCAGCxCxTxAxCxCxC)–Flu-3’ [5'-Pept3-pgd-inh3-Flu, 5’-Pept3 conjugate of pgd-inh3 with 3’-fluorescein] | 7,0±1% | 1,7±0,3% |  |
| 5’-Pept1-d(CAAGCAGCxCxTxAxCxCxC)–Flu-3’ [5'-Pept1-pgd-inh3-Flu, 5’-Pept1 conjugate of pgd-inh3 with 3’-fluorescein] | 4,1±0,1% | 1,8±0,2% |  |
| 5’-Pept2-d(CAAGCAGCxCxTxAxCxCxC)–Flu-3’ [5'-Pept2-pgd-inh3-Flu, 5’-Pept2 conjugate of pgd-inh3 with 3’-fluorescein] | 5,3±0,3% | 6,5±0,5% | 6.5 |
| 5’-Pept4-d(CAAGCAGCxCxTxAxCxCxC)–Flu-3’ [5'-Pept4-pgd-inh3-Flu, 5’-Pept4 conjugate of pgd-inh3 with 3’-fluorescein] | 6,4±0,2% | 2,0±0,3% |  |
